# Measurements as given in PMC11481913, “Rational design of a flavoenzyme for aerobic nicotine catabolism” (mBio, 2024).
# Biological target: the molecule itself
# Assay: SEC; Superdex 200 Increase 10/300 GL; molecular weight by elution (Fig. S2)
protein,measurement,value
"PnaoΔN30 (residues 31–497) (enzyme, Pseudomonas putida S16, UniProt F8G0P1 31-496, looked up, Pnao, flavin-dependent pseudooxynicotine oxidase of Pseudomonas putida S16; N-terminal truncation of 30 residues, residues 31-497; Cloned in pET-28a between NcoI and XhoI, which probably gives a C-terminal His6 tag; also called pseudooxynicotine amine oxidase; source: E. coli BL21(DE3), purified (Ni2+-NTA, size-exclusion chromatography)) IASQLLTLSAPAEAAVKTNVGPSRAGVGYDVIVIGGGFAGVTAAREASRSGLKTLILEGRSRLGGRTFTSKLQNQKVELGGTWVHWTQPNVWTEIMHYGLEVEETVGLANPETVIWVTEDNVKRAPAAEAFEIFGSACNEYYKEARNIYPRPFEPFFERKKLQHVDGLSAADYLEKLPLTREQKDMMDSWLSGNGHNYPETIAYSEIMRWFALSNFNMPTMFDSIARYKIKTGTHSLLEAIMADGNSEVKLSTPVTKVNQDKDKVTVTTEDGVFTASAVIVAVPINTLHDIEYSPKLSAAKVDMGSQRHAGAGVKGYIRVKQNVGNVMTYAPARNKLTPFTSVFTDHVDESGTLLIAFSADPKLIDINDIKAVEKALQPLLPGVEVTASYGYDWNLDPFSKGTWCTYRPNQTTRYLTELQKREGRLFFAGSDMANGWRGFIDGAIENGREVGHQVATYLKRENDNA",stoichiometry N,2
